{
  "source": "paper PMC6082896",
  "target": "T1, OxyR (Pseudomonas aeruginosa (PAO1?)) (UniProt Q9HTL4)",
  "T1 sequence": "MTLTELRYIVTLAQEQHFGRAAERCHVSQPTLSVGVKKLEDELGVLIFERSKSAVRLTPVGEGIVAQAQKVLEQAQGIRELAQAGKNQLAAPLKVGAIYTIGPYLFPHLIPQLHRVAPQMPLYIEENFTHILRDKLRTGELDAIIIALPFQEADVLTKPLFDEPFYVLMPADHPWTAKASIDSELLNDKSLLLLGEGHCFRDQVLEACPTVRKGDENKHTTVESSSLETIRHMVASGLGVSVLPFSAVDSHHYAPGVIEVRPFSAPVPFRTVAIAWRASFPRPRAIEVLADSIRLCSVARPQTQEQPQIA",
  "assay": "EMSA",
  "settings": "20 mM Tris-HCl pH 7.0, 50 mM KCl, 1 mM EDTA, 5% glycerol, 50 ug/ml BSA, 5 ug/ml calf thymus DNA, 0.5 ug/ml poly[dI-dC], 50 ug/ml salmon sperm DNA, 100 mM DTT …",
  "data": [
    {"sequence": "AAGTCGGTGATGGCCTCGCCGGCCAGGCGGCGCAGGCGCTTCTGCAGTTTGTTCTGATTGACCGAAAGGGTGCCCATGGTGCTCTGGAATCCGGGTGTTCGAGGAGAAAAGCTGGCTATTTTACGCACAAAGCGACGCCGACCCCAGCCCCTCCCGACGCCCGATGCTAGTCTTGCCCCATGACTCCCGACCTCGACCACCGCCTCGACCT (double strand) [ttcA promoter fragment]", "values": [
      {"measurement": "binding", "result": "binds"}
    ]}
  ]
}
